Assays:
[1] = molecular target: T1, human γD crystallin (Homo sapiens, UniProt P07320); test: αB crystallin protein pin array with γD crystallin; format: binding; settings: unheated γD crystallin; similar maxima pre-heated 45° C.
T1 construct: made in house
T1 sequence (P07320 1-174): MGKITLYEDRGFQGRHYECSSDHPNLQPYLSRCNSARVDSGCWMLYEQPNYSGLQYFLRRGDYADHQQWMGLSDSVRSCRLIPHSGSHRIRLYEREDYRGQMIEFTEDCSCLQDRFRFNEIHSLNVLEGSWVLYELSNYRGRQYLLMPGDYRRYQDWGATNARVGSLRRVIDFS
Source text: (§1) Synthesis of Pins, binding and detection of peptides binding to ligand proteins. The αB crystallin protein pin array was used to measure the interaction between peptides and chaperone target proteins including bovine βH crystallin, human γD crystallin, equine alcohol dehydrogenase (ADH) and porcine citrate synthase (CS) as described (FIG. 12). Ghosh and Clark, Protein Sci 14: 684-95, 2005.
(§2) Refer to the methods section for detailed protocols. The absorbance corresponding to the blue coloration in each well was measured at λ=450 nm and plotted against the amino acid sequence of the corresponding peptide in that well (FIGS. 13 and 14). Wells containing peptides that have strong interactions with target proteins are dark blue and wells containing peptides that have weak or no interaction with target proteins are light blue or clear.
(§3) The purity of the target proteins used in the pin array assays, bovine βH crystallin, human γD crystallin, equine alcohol dehydrogenase (ADH) and porcine citrate synthase (CS) were determined to be >90% by SDS-PAGE. In addition, primary antibodies for each target protein were specific to that target protein and consequently contaminating proteins that may bind to the peptides will not be detected. Eighty-four sequential and overlapping peptide fragments corresponding to residues 1-175 of human αB crystallin were synthesized employing a simultaneous peptide synthesis strategy developed by Geysen, called Multipin Peptide Synthesis (Mimotopes, San Diego, Calif.). Geysen, Southeast Asian J Trop Med Public Health 21: 523-33, 1990; Chin et al., J Org Chem 62: 538-539, 1997. Peptides were immobilized on derivatized polyethylene pins arranged in a microtiter ELISA plate format. Each peptide was eight amino acids in length and consecutive peptides were offset by two amino acids. All peptides were bound covalently to the surface of the plastic pins. The first peptide was 1MDIAIHHP8 and the last peptide was 168PAVTAAPK175 for human αB crystallin.
(§4) Ghosh and Clark, Protein Sci 14: 684-95, 2005. […] The intensity of the blue color in the wells was measured at 450 nm using an ELISA plate-reader (BioTek, Winooski, Vt.). The intensity of the blue color (plotted on the X-axis) was a measure of the interaction between αB crystallin peptides (plotted on the Y-axis) and target proteins. To measure the effect of temperature on the interactions between interactive peptides and the target proteins, the target proteins were heated in a water-bath at 45° C. for fifteen minutes prior to use. Pin arrays are unable to differentiate between monomers, dimers or oligomers of target proteins that exist in solution. Instead, pin arrays are very sensitive detectors of interactions between individual peptides and the entire population (monomers, dimers or oligomers) of specific target proteins that may exist in solution under specific conditions. Each target protein was assayed two to five times. A single pin array was used for all experiments and no change in interactions was observed after more than thirty repetitions. The last three peptides of the protein pin array, 163REEKPAVT170, 165EKPAVTAA172, 167PAVTAAPK174, correspond to the epitope (163REEKPAVTAAPKK175) recognized by the primary antibody for human αB crystallin. A positive reaction is observed for these three peptides in the absence of human αB crystallin as the ligand due to direct binding of the anti-human αB crystallin antibody to these three peptides. The loss of efficiency for the pin array was measured using this assay. The loss of efficiency for the pin array was determined to be <5% by after more than 30 assays.
When βH crystallin was replaced with γD crystallin, a native protein constituent of lens cytoplasm from the same gene family as the β crystallins, as the ligand in the pin array, twelve interactive sequences were identified (FIG. 14: striped bars). […]

[2] = molecular target: T2, porcine citrate synthase (CS) (Sus scrofa, UniProt P00889); test: αB crystallin protein pin array with citrate synthase; format: binding; settings: CS as target protein in the pin array
T2 construct: purchased Roche Diagnostics, IN 103 381
T2 sequence (P00889 28-464): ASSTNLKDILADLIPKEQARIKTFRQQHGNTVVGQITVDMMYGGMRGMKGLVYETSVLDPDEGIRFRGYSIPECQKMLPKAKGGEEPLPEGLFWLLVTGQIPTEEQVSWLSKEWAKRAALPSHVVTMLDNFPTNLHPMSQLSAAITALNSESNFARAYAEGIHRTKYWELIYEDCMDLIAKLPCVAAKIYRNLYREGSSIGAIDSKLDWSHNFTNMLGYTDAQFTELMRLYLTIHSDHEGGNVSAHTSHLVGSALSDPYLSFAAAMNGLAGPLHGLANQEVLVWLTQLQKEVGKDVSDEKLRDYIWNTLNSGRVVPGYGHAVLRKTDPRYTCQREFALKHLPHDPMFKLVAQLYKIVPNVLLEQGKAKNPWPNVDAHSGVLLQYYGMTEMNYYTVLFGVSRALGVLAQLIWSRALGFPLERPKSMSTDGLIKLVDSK
Source text: as §1, §2, §3, §4
The pattern of absorbance at λ=450 nm when αB crystallin peptides were assayed with unheated and pre-heated CS was similar to the absorbance pattern obtained with unheated and pre-heated βH/γD crystallin and ADH (FIG. 18). […]

[3] = as provided by manufacturer (Mimotopes); cited from earlier work

Row | Sequence | absorbance at 450 nm, interaction with γD crystallin [1] | absorbance at 450 nm, interaction with CS [2] | Hydrophobicity [3]
1 | FSVNLDVK [Peptide 38] | maximum absorbances | absorbance maxima | 0.44
2 | LTITSSLS [Peptide 66] | maximum absorbances | absorbance maxima | 0.7
3 | WIRRPFFP [Peptide 5] | maximum absorbances | absorbance maxima | 0.88
